Results on one molecule are retold here after PMC1343528 (The Journal of Cell Biology, 2005).

In the assay the target is calmodulin, purified (UniProt P0DP23 1-149). In words: pull-down.

B1: GST fusion of α1C aa 1581–1690 with EEDAAA in place of TVGKFY (Mut6) (domain or fragment)
chain: not shown
As for B1, the binding result was “binds”.
